According to the RNAGym collection of RNA variant scans (doi:10.7554/elife.80360):

B1: HDV Ribozyme (parent)
chain: GGCCGGCAUGGUCCCAGCCUCCUCGCUGGCGCCGGCUGGGCAACAUUCCGAGGGGACCGUCCCCUCGGUAAUGGCGAAUGGGACCCA

Variants of: B1
Test: self-cleavage, relative activity (ratio to wild type); higher = more cleavage; co-transcriptional

Q: For GGCCGGCAUGGUCCCAGCCUCCUCGCUGGCGCCGGCUGGGCAACAUUCCGAAGGGACCGUCCCCUCGGUUAUGGCGAAUGGGACCCA [G52A A70U], which self-cleavage is on record?
A: 0.858

Q: With GGCCGGCAUGGUCCCAGCCUCCUCGCUGGCGCCGGCUGGGCAACAUUCCGAAGGGACCGUCCCCUCGGUCAUGGCGAAUGGGACCCA [G52A A70C] as the variant, how does the self-cleavage read?
A: 0.791

Q: With GGCCGGCAUGGUCCCAGCCUCCUCGCUGGCGCCGGCUGGGCAACAUUCCGUGGGUACCGUCCCCUCGGUAAUGGCGAAUGGGACCCA [A51U G55U] as the variant, how does the self-cleavage read?
A: 0.989

Q: Which self-cleavage does the source give for GGCCGGCAUGGUCCCAGCCUCCUCGCUGGCGCCGGCUGGGCAACAUUCCGAAGGGGCCGUCCCCUCGGUAAUGGCGAAUGGGACCCA [G52A A56G] here?
A: 0.801

Q: Which self-cleavage does the source give for GGCCGGCAUGGUCCCAGCCUCCUCGCUGGCGCCGGCUGGGCAACAUUCCGUGGGGACCGUCCCCUCGGUAAUGGUGAAUGGGACCCA [A51U C75U] here?
A: 0.177

Q: With GGCCGGCAUGGUCCCAGCCUCCUCGCUGGCGCCGGCUGGGCAACAUUCCGUGGGGACCGUCCCCCCGGUAAUGGCGAAUGGGACCCA [A51U U65C] as the variant, how does the self-cleavage read?
A: 1.04

Q: For GGCCGGCAUGGUCCCAGCCUCCUCGCUGGCGCCGGCUGGGCAACAUUCCGUGGGGACCGUCCCCACGGUAAUGGCGAAUGGGACCCA [A51U U65A], which self-cleavage is on record?
A: 0.966

Q: With GGCCGGCAUGGUCCCAGCCUCCUCGCUGGCGCCGGCUGGGCAACAUUCCGUGCGGACCGUCCCCUCGGUAAUGGCGAAUGGGACCCA [A51U G53C] as the variant, how does the self-cleavage read?
A: 0.776

Q: For GGCCGGCAUGGUCCCAGCCUCCUCGCUGGCGCCGGCUGGGCAACAUUCCGUGUGGACCGUCCCCUCGGUAAUGGCGAAUGGGACCCA [A51U G53U], which self-cleavage is on record?
A: 1.11

Q: With GGCCGGCAUGGUCCCAGCCUCCUCGCUGGCGCCGGCUGGGCAACAUUCCGAAGGGACCGUCCCCUCGGUAAUGGCGCAUGGGACCCA [G52A A77C] as the variant, how does the self-cleavage read?
A: 0.309

Q: With GGCCGGCAUGGUCCCAGCCUCCUCGCUGGCGCCGGCUGGGCAACAUUCCGUGGGGACCGUCCCCUCGGUAAUGGCGAAUGGCACCCA [A51U G82C] as the variant, how does the self-cleavage read?
A: 0.282

Q: Which self-cleavage does the source give for GGCCGGCAUGGUCCCAGCCUCCUCGCUGGCGCCGGCUGGGCAACAUUCCGUGGGGACCGUCCCCUCGGUAAUGGCGAAUUGGACCCA [A51U G80U] here?
A: 0.257

Q: With GGCCGGCAUGGUCCCAGCCUCCUCGCUGGCGCCGGCUGGGCAACAUUCCGUGGGGACCGUCCCCUCGGUAAUGGCGAAUGGGAGCCA [A51U C84G] as the variant, how does the self-cleavage read?
A: 0.443

Q: With GGCCGGCAUGGUCCCAGCCUCCUCGCUGGCGCCGGCUGGGCAACAUUCCGUGGGGACCGUCCCCUCGGUAAUGGCGAAUGGGAUCCA [A51U C84U] as the variant, how does the self-cleavage read?
A: 0.716

Q: For GGCCGGCAUGGUCCCAGCCUCCUCGCUGGCGCCGGCUGGGCAACAUUCCGUGGCGACCGUCCCCUCGGUAAUGGCGAAUGGGACCCA [A51U G54C], which self-cleavage is on record?
A: 0.982

Q: With GGCCGGCAUGGUCCCAGCCUCCUCGCUGGCGCCGGCUGGGCAACAUUCCGUGGGGACCGUCCCCUCGUUAAUGGCGAAUGGGACCCA [A51U G68U] as the variant, how does the self-cleavage read?
A: 0.9

Q: With GGCCGGCAUGGUCCCAGCCUCCUCGCUGGCGCCGGCUGGGCAACAUUCCGUGGGGACCGUCCCCUCGAUAAUGGCGAAUGGGACCCA [A51U G68A] as the variant, how does the self-cleavage read?
A: 0.787

Q: Which self-cleavage does the source give for GGCCGGCAUGGUCCCAGCCUCCUCGCUGGCGCCGGCUGGGCAACAUUCCGUGGGGACCGUCCCCUCGCUAAUGGCGAAUGGGACCCA [A51U G68C] here?
A: 0.554

Q: For GGCCGGCAUGGUCCCAGCCUCCUCGCUGGCGCCGGCUGGGCAACAUUCCGUGGGGACCGUCCCCUCGGUAAUGGCGAAGGGGACCCA [A51U U79G], which self-cleavage is on record?
A: 0.534

Q: Which self-cleavage does the source give for GGCCGGCAUGGUCCCAGCCUCCUCGCUGGCGCCGGCUGGGCAACAUUCCGUGGGGACCGUCCCCUCGGUAAUGGCGAAUGGGACCAA [A51U C86A] here?
A: 0.848

Q: For GGCCGGCAUGGUCCCAGCCUCCUCGCUGGCGCCGGCUGGGCAACAUUCCGUGGGGACCGUCCCCUCGGUAAUGGCGAAUGGGACCUA [A51U C86U], which self-cleavage is on record?
A: 0.831

Q: Which self-cleavage does the source give for GGCCGGCAUGGUCCCAGCCUCCUCGCUGGCGCCGGCUGGGCAACAUUCCGUGGGGACCGUCCCCUCGGUAAUGGCGAAUGGGACCGA [A51U C86G] here?
A: 1.21

Q: With GGCCGGCAUGGUCCCAGCCUCCUCGCUGGCGCCGGCUGGGCAACAUUCCGUGGGGACCGUCCCCUCGGUAAUGGCGAAUGUGACCCA [A51U G81U] as the variant, how does the self-cleavage read?
A: 0.282

Q: For GGCCGGCAUGGUCCCAGCCUCCUCGCUGGCGCCGGCUGGGCAACAUUCCGAAGGGACCGUCCCCUCGGUAAUGGCGAAUGGGACCCA [G52A], which self-cleavage is on record?
A: 1.02

Q: Which self-cleavage does the source give for GGCCGGCAUGGUCCCAGCCUCCUCGCUGGCGCCGGCUGGGCAACAUUCCGUCGGGACCGUCCCCUCGGUAAUGGCGAAUGGGACCCA [A51U G52C] here?
A: 0.849

Q: Which self-cleavage does the source give for GGCCGGCAUGGUCCCAGCCUCCUCGCUGGCGCCGGCUGGGCAACAUUCCGUUGGGACCGUCCCCUCGGUAAUGGCGAAUGGGACCCA [A51U G52U] here?
A: 0.889

Q: For GGCCGGCAUGGUCCCAGCCUCCUCGCUGGCGCCGGCUGGGCAACAUUCCGAAGGGACCGUCCCCUCGGUAUUGGCGAAUGGGACCCA [G52A A71U], which self-cleavage is on record?
A: 0.923

Q: Which self-cleavage does the source give for GGCCGGCAUGGUCCCAGCCUCCUCGCUGGCGCCGGCUGGGCAACAUUCCGAAGGGACCGUCCCCUCGGUAGUGGCGAAUGGGACCCA [G52A A71G] here?
A: 0.845

Q: For GGCCGGCAUGGUCCCAGCCUCCUCGCUGGCGCCGGCUGGGCAACAUUCCGUGGGGACCGUCCCCUCGGGAAUGGCGAAUGGGACCCA [A51U U69G], which self-cleavage is on record?
A: 0.98

Q: With GGCCGGCAUGGUCCCAGCCUCCUCGCUGGCGCCGGCUGGGCAACAUUCCGUGGGGACCGUCCCCUCGGUAAUUGCGAAUGGGACCCA [A51U G73U] as the variant, how does the self-cleavage read?
A: 0.504

Q: Which self-cleavage does the source give for GGCCGGCAUGGUCCCAGCCUCCUCGCUGGCGCCGGCUGGGCAACAUUCCGUGGGGACCGUCCCCUCGGUAAUAGCGAAUGGGACCCA [A51U G73A] here?
A: 0.607

Q: Which self-cleavage does the source give for GGCCGGCAUGGUCCCAGCCUCCUCGCUGGCGCCGGCUGGGCAACAUUCCGUGGGGACCGUCCCCUCGGUAAUCGCGAAUGGGACCCA [A51U G73C] here?
A: 0.415
